Reference: publication PMC9064986 (2022)

B1: BMPRII extracellular domain (ECD), wild type [human] / BMP10 growth factor (GF)-domain from Pro:BMP10 made in HEK EBNA cells [human] (parent complex)
chain 1: SQNQERLCAFKDPYQQDLGIGESRISHENGTILCSKGSTCYGLWEKSKGDINLVKQGCWSHIGDPQECHYEECVVTTTPPSIQNGTYRFCCCSTDLCNVNFTENFPPPDTTPLSPPHSFNRDET
chain 2: NAKGNYCKRTPLYIDFKEIGWDSWIIAPPGYEAYECRGVCNYPLAEHLTPTKHAIIQALVHLKNSQKASKACCVPTKLEPISILYLDKGVVTYKFKYEGMAVSECGCR

Variants of: B1
Experiment: SPR (Biacore); BMP10 immobilised on a CM5 Biacore chip; parent: 0.161

koff [s⁻¹]	Variant
0.158	chain 1 E72K
0.147	chain 1 Q66H
0.331	chain 1 G63A
0.609	chain 1 G63E
0.433	chain 1 G63W
0.0423	chain 1 S81P

Variants of: B1
Experiment: SPR (Biacore); BMP10 immobilised on a CM5 Biacore chip; parent: 1.35e+05

kon [M⁻¹ s⁻¹]	Variant
148000	chain 1 E72K
120000	chain 1 Q66H
104000	chain 1 G63A
3980	chain 1 G63E
1830	chain 1 G63W
129000	chain 1 S81P

Variants of: B1
Experiment: SPR (Biacore); BMP10 immobilised on a CM5 Biacore chip; parent: 1.19e+03 nM

Kd [nM]	Variant
1070	chain 1 E72K
1220	chain 1 Q66H
3190	chain 1 G63A
153000	chain 1 G63E
237000	chain 1 G63W
328	chain 1 S81P
